From publication PMC9352680, “A comprehensive thermodynamic model for RNA binding by the Saccharomyces cerevisiae Pumilio protein PUF4”

T1: PUF4 RNA-binding domain (Saccharomyces cerevisiae, UniProt P25339 537-888)
T1 sequence: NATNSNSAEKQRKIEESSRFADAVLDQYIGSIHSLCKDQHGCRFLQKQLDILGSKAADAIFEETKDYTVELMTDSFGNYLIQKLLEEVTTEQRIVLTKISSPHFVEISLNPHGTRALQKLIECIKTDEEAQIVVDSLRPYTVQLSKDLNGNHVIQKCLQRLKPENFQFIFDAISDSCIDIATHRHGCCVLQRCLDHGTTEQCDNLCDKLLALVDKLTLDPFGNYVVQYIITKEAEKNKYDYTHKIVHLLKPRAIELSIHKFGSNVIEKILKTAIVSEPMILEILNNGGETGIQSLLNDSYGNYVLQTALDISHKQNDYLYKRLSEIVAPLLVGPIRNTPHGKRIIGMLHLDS


The binders below were run against T1, PUF4 RNA-binding domain (assay: Mg; RNA-MaP; 20 mM Na-HEPES pH 7.4, 30 mM KOAc, 0.75 mM MgCl2, 0.1% Tween-20, 5% glycerol, 0.1 mg/mL BSA, 2 mM DTT; 25 C; 0.0125-409.6 nM protein). Conditions: tags: N-His6-TEV cleaved; C-SNAP kept, Cy3B-labelled; label: tethered on chip by stalled RNA polymerase.

Binder | Kd [nM]
UCUCUUAGUAUUAGUAUCUCUU (ssRNA) [Ib_S1_P5E.1_K5.1_C5.1_H5.1_[T1A]_A5.1_F5.1_[T8G]_T5.1] | > 2300
UCUCUUUGUAUUAUAAUCUCUU (ssRNA) [Ia_S1_P5E.1_K5.1_C5.1_H5.1_A5.1_F5.1_[T9A]_T5.1] | 2.37
UCUCUUUAUAUUACUAUCUCUU (ssRNA) [Ib_S1_P5E.1_K5.1_C5.1_H5.1_[G2A]_A5.1_F5.1_[T8C]_T5.1] | 728
UCUCUUUGUAUUAUAUUCUCUU (ssRNA) [Ib_S1_P5E.1_K5.1_C5.1_H5.1_A5.1_F5.1_[T9A]_[A10T]_T5.1] | 1.1
UCUCUUCGUAUUAGUAUCUCUU (ssRNA) [Ib_S1_P5E.1_K5.1_C5.1_H5.1_[T1C]_A5.1_F5.1_[T8G]_T5.1] | > 2300
UCUCUUUUUAUUAGUAUCUCUU (ssRNA) [Ib_S1_P5E.1_K5.1_C5.1_H5.1_[G2T]_A5.1_F5.1_[T8G]_T5.1] | > 2300
Id_ii_S2_P3E.2_K3.1_C3.2_[C-2G]_[T-1C]_H3.1_A3.1_F3.1_T3.2_[A10T] (ssRNA) RNA: UUUGAUUAAUAUGAUAUCGUUCUUUCUGCUGUAUAUAUUUUCUUUCUCGAUAUCAUAUUAAUCUUU | 1.77
Id_ii_S2_P3E.2_K3.1_C3.2_[C-2G]_H3.1_A3.1_F3.1_T3.2_[T9C]_[A10C] (ssRNA) RNA: UUUGAUUAAUAUGAUAUCGUUCUUUCUGUUGUAUAUACCUUCUUUCUCGAUAUCAUAUUAAUCUUU | 18
Id_ii_S2_P3E.2_K3.1_C3.2_[C-2G]_H3.1_A3.1_F3.1_T3.2_[T9C]_[A10T] (ssRNA) RNA: UUUGAUUAAUAUGAUAUCGUUCUUUCUGUUGUAUAUACUUUCUUUCUCGAUAUCAUAUUAAUCUUU | 44.5
Id_ii_S2_P3E.2_K3.1_C3.2_[C-2T]_H3.1_A3.1_F3.1_T3.2_[T9A] (ssRNA) RNA: UUUGAUUAAUAUGAUAUCGUUCUUUCUUUUGUAUAUAAAUUCUUUCUCGAUAUCAUAUUAAUCUUU | 6.87
Id_ii_S2_P3E.2_K3.1_C3.2_[C-2T]_H3.1_A3.1_F3.1_T3.2_[T9A]_[A10C] (ssRNA) RNA: UUUGAUUAAUAUGAUAUCGUUCUUUCUUUUGUAUAUAACUUCUUUCUCGAUAUCAUAUUAAUCUUU | 4.14
Id_ii_S2_P3E.2_K3.1_C3.2_[C-2T]_[T-1G]_H3.1_A3.1_F3.1_T3.2_[A10T] (ssRNA) RNA: UUUGAUUAAUAUGAUAUCGUUCUUUCUUGUGUAUAUAUUUUCUUUCUCGAUAUCAUAUUAAUCUUU | 1.33
Id_ii_S2_P3E.2_K3.1_C3.2_[C-2T]_[T-1G]_H3.1_A3.1_F3.1_T3.2_[T9G]_[A10C] (ssRNA) RNA: UUUGAUUAAUAUGAUAUCGUUCUUUCUUGUGUAUAUAGCUUCUUUCUCGAUAUCAUAUUAAUCUUU | 6.53
Id_ii_S2_P3E.2_K3.1_C3.2_[C-2T]_H3.1_A3.1_F3.1_T3.2_[A10T] (ssRNA) RNA: UUUGAUUAAUAUGAUAUCGUUCUUUCUUUUGUAUAUAUUUUCUUUCUCGAUAUCAUAUUAAUCUUU | 1.56
Id_ii_S2_P3E.2_K3.1_C3.2_[C-2T]_[T-1C]_H3.1_A3.1_F3.1_T3.2_[T9C]_[A10C] (ssRNA) RNA: UUUGAUUAAUAUGAUAUCGUUCUUUCUUCUGUAUAUACCUUCUUUCUCGAUAUCAUAUUAAUCUUU | 3.42
Id_ii_S2_P3E.2_K3.1_C3.2_[C-2T]_[T-1C]_H3.1_A3.1_F3.1_T3.2_[T9C] (ssRNA) RNA: UUUGAUUAAUAUGAUAUCGUUCUUUCUUCUGUAUAUACAUUCUUUCUCGAUAUCAUAUUAAUCUUU | 7.13
Id_ii_S2_P3E.2_K3.1_C3.2_[C-2T]_[T-1G]_H3.1_A3.1_F3.1_T3.2_[A10C] (ssRNA) RNA: UUUGAUUAAUAUGAUAUCGUUCUUUCUUGUGUAUAUAUCUUCUUUCUCGAUAUCAUAUUAAUCUUU | 3.49
Id_ii_S2_P3E.2_K3.1_C3.2_[C-2A]_[T-1G]_H3.1_A3.1_F3.1_T3.2_[A10C] (ssRNA) RNA: UUUGAUUAAUAUGAUAUCGUUCUUUCUAGUGUAUAUAUCUUCUUUCUCGAUAUCAUAUUAAUCUUU | 38.5
Id_ii_S2_P3E.2_K3.1_C3.2_[C-2T]_[T-1A]_H3.1_A3.1_F3.1_T3.2_[T9G]_[A10T] (ssRNA) RNA: UUUGAUUAAUAUGAUAUCGUUCUUUCUUAUGUAUAUAGUUUCUUUCUCGAUAUCAUAUUAAUCUUU | 7.14
Id_ii_S2_P3E.2_K3.1_C3.2_[C-2T]_H3.1_A3.1_F3.1_T3.2_[T9G]_[A10T] (ssRNA) RNA: UUUGAUUAAUAUGAUAUCGUUCUUUCUUUUGUAUAUAGUUUCUUUCUCGAUAUCAUAUUAAUCUUU | 2.77
Id_ii_S2_P3E.2_K3.1_C3.2_[C-2T]_H3.1_A3.1_F3.1_T3.2_[T9A]_[A10T] (ssRNA) RNA: UUUGAUUAAUAUGAUAUCGUUCUUUCUUUUGUAUAUAAUUUCUUUCUCGAUAUCAUAUUAAUCUUU | 4.47
Id_ii_S2_P3E.2_K3.1_C3.2_[C-2T]_H3.1_A3.1_F3.1_T3.2_[T9C]_[A10G] (ssRNA) RNA: UUUGAUUAAUAUGAUAUCGUUCUUUCUUUUGUAUAUACGUUCUUUCUCGAUAUCAUAUUAAUCUUU | 3.7
Id_ii_S2_P3E.2_K3.1_C3.2_[C-2T]_H3.1_A3.1_F3.1_T3.2_[A10G] (ssRNA) RNA: UUUGAUUAAUAUGAUAUCGUUCUUUCUUUUGUAUAUAUGUUCUUUCUCGAUAUCAUAUUAAUCUUU | 2.61
